# Target: P72509
# Experiment: SEC; C-PC dialysed overnight against 8 M urea and 30 mM β-mercaptoethanol, then loaded on Superdex 200 Increase 5/150 in urea-free 75 mM phosphate buffer pH 7.9; partial reassociation during the run
protein,measurement,value
C-phycocyanin αβ monomer (heterodimer of the α and β subunits) from Arthrospira platensis (protein) chain 1: not shown chain 2: MFDAFTKVVSQADTRGEMLSTAQIDALSQMVAESNKRLDAVNRITSNASTIVSNAARSLFAEQPQLIAPGGNAYTSRRMAACLRDMEIILRYVTYAVFAGDASVLEDRCLNGLRETYLALGTPGSSVAVGVGKMKEAALAIVNDPAGITPGDCSALASEIASYFDRACAAVS,yield of the state with the initial hydrodynamic characteristics after renaturation from 8 M urea,9.6%

# Reference: publication PMC9440762
